Patent publication US20190015484A1, “NICOTINE-DEGRADING ENZYMES FOR TREATING NICOTINE ADDICTION AND NICOTINE POISONING” (priority 2015, published 2019)
Entries after “also recorded” stand apart in the source; their conditions may differ.

Assays:
[1] = Temperature curve of NicA2; assay type: biochemical; details: HEPES buffer, 20-95° C.
Experimental: 100 μL of each solution was mixed, incubated, quenched and then analyzed as detailed, vide supra.
The effect of higher temperatures on the enzyme's stability was also examined.

[2] = In vivo testing of NicA2: blood and brain nicotine levels in rats; parameters: species or system rat
Experimental: Rats were used for in vivo testing because their nicotine metabolism is generally similar to that of humans with regard to rate and range of metabolites. 30 female, 250 g Sprague Dawley rats were pretreated with varying amounts of NicA2 intravenously as noted in Table B below.
After administration of NicA2 (generally over 5 minutes), nicotine (0.03 mg/kg) was administered intravenously. At 5 minutes, the rats were sacrificed under isoflurane anesthesia and 1 ml blood samples were collected with 0.32 ml heparin. 0.5 ml of each blood sample was added to a tube containing ice cold 2 ml methanol (to quench NicA2 activity) and the contents were rapidly mixed. Another 0.5 ml of each blood sample was added to a tube containing ice cold 2 ml of methanol (to quench NicA2 activity) and deuterium labeled D4-nicotine, and the contents were rapidly mixed. The brains were collected and frozen at −20° C. Measurements were made in accordance with Keyler et al., International Pharmacology 2008, 8, […], and, Hieda et al., Psychopharmacology, 1999, 143(2), 150-157.

[3] = NicA2 co-factor assay (FAD or FMN); assay type: biochemical; details: 40 μM FMN or FAD, room temperature
Experimental: An FAD or FMN stock solution was added to nicotine HEPES solution to obtain 80 μM FAD or FMN mixed with 4 μM nicotine. 100 μL each sample was mixed with
100 μL 40 nM NicA2 and incubated at room temperature for 20 min. An additional sample without FAD or FMN was prepared at the same time as the control. The samples were analyzed as described above.

[4] = NicA2 PK study in mice (ELISA of serum); assay type: in vivo, mouse
Experimental: Purified His-tagged NicA2 was conjugated to 20 kDa PEG and subsequently purified by HPLC. […] The fusion protein was expressed in E. coli and purified as described above for NicA2.
His-tagged NicA2, NicA2-PEG or NicA2-ABD was dosed intravenously in mice at 5 mg/kg. Blood sampling was done at pre-dose and then over a 5 min-72 h period (three animals per time-point) and processed to serum.
Assay of serum samples was done taking advantage of the C-terminal His-tag on the test articles. MaxiSorp ELISA plates (Nunc) were coated overnight with anti-His×6 antibody (purchased from R&D Systems). Plates were blocked with 4% dry milk (purchased from Bio-Rad) in PBS. Dilutions of standard and serum samples in 2% milk in PBS+0.1% Tween-20 were added to the plates, and incubated for 1 hour at room temperature. After washing away unbound substances (all wash steps performed in PBS+0.1% Tween-20), rabbit anti-NicA2 polyclonal primary detection antibody (purchased from Noble Life Sciences, Inc.) was added to the wells for a 1 hour incubation. […] Plates were washed, and the remaining binding complex was detected with TMB substrate (3,3′,5,5′-tetramethylbenzidine; KPL). Once stopped with acid, plates were read on a spectrophotometer at 450 nm and data analyzed in SoftMax® Pro, version 6.5.1 (purchased from Molecular Devices). […]

B1: NicA2: flavin-containing nicotine-degrading enzyme of Pseudomonas putida S16, amino acid sequence SEQ ID NO:1 (protein)
chain: MSDKTKTNEGFSRRSFIGSAAVVTAGVAGLGAIDAASATQKTNRASTVKGGFDYDVVVVGGGFAGATAARECGLQGYRTLLLEARSRLGGRTFTSRFAGQEIEFGGAWVHWLQPHVWAEMQRYGLGVVEDPLTNLDKTLIMYNDGSVESISPDEFGKNIRIAFEKLCHDAWEVFPRPHEPMFTERARELDKSSVLDRIKTLGLSRLQQAQINSYMALYAGETTDKFGLPGVLKLFACGGWNYDAFMDTETHYRIQGGTIGLINAMLTDSGAEVRMSVPVTAVEQVNGGVKIKTDDDEIITAGVVVMTVPLNTYKHIGFTPALSKGKQRFIKEGQLSKGAKLYVHVKQNLGRVFAFADEQQPLNWVQTHDYSDELGTILSITIARKETIDVNDRDAVTREVQKMFPGVEVLGTAAYDWTADPFSLGAWAAYGVGQLSRLKDLQAAEGRILFAGAETSNGWHANIDGAVESGLRAGREVKQLLS
modifications: His tag
optimum temperature [1]: 70 °C
brain nicotine levels ([2]; 4 out of the 5 animals, 5 min after 0.03 mg/kg i.v. nicotine): < 2 ng/mL
blood and brain levels of nicotine ([2]; rats, 5 minutes after 0.03 mg/kg i.v. nicotine, n=5): below the limit of quantitation
reduction in nicotine blood levels ([2]; rats, highest NicA2 dose (9.72 mg/kg i.v.), 5 min after 0.03 mg/kg i.v. nicotine, compared to controls): > 95%
effect of added FMN or FAD on NicA2 activity [3]: no change in NicA2 activity; also recorded: did not affect the activity
half-life in vivo ([4]; in vivo in mammals, due to renal clearance): 3 to 4 h
Half-life ([4]; mice, 5 mg/kg intravenously, serum): 3.7 h
